From PMC3408606 (Thrombosis and haemostasis, 2011)

Test system: platelets
Assay: Platelet aggregation
Format: cell-based, human

B1: ApoD: plasma lipocalin constituent of HDL, recombinant 6xHis, expressed in HEK293 cells (protein, UniProt P05090 21-189, looked up)
Apolipoprotein D: QAFHLGKCPNPPVQENFDVNKYLGRWYEIEKIPTTFENGRCIQANYSLMENGKIKVLNQELRADGTVNQIEGEATPVNLTEPAKLEVKFSWFMPSAPYWILATDYENYALVYSCTCIIQLFHVDFAWILARNPNLPPETVDSLKNILTSNNIDVKKMTVTDQVNCPKLS
modifications: 6xHis tag
did not inhibit: Inhibition of AA-induced platelet aggregation (low doses of AA, ApoD expressed in HEK293 cells) | Inhibition of U46619-induced platelet aggregation (low doses of U46619, ApoD expressed in HEK293 cells) | Inhibition of collagen-induced platelet aggregation (low doses of collagen, ApoD expressed in HEK293 cells)
